These are literature values, as cited in paper PMC4364296.

“And” between values parts separate entries of the source, which are not always exact repeats. Equal values may be shown once. Read-outs that look alike come from different tables or passages of the source.

The target of series [1] is ZipA (Escherichia coli) (UniProt P77173).
Series [2] shares this target. This is another data set of the same source.

Sequence of FtsZ (P0A9A6 whole entry): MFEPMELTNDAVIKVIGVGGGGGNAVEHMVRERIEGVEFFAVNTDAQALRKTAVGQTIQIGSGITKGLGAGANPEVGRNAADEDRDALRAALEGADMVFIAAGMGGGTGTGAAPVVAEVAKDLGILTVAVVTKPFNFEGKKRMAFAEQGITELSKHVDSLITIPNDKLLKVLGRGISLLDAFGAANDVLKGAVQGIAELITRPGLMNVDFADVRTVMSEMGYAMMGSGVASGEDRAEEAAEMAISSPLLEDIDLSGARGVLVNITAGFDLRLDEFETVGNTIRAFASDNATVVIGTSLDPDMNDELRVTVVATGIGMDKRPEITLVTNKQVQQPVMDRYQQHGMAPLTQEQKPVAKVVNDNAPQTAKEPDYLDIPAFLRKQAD

For orientation: Kd means the free concentration of one partner at which half of the binding sites on the other are occupied at equilibrium, for simple one-to-one binding. “FtsZ CCTP peptide CCTP (from UniProt P0A9A6)”: the Kd in the series with ZipA (Escherichia coli) [1] was 35 µM and 21.6 µM.
Consider FtsZ (from UniProt P0A9A6), for which the dissociation constant (Kd) in the series with ZipA (Escherichia coli) [2] was 40 µM.
